T1: rat CLDN18.2 (rat, UniProt Q5I0E5 1-261)
T1 chain: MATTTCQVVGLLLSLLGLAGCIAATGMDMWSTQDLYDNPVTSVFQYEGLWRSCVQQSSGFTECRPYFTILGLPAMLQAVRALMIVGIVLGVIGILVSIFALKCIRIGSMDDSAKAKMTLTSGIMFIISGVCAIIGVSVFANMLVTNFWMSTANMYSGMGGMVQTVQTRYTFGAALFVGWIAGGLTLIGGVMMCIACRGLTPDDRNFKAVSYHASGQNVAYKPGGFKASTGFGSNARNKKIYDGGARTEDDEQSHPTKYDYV

T2: mouse CLDN18.2 (mouse, UniProt P56857 1-264)
T2 chain: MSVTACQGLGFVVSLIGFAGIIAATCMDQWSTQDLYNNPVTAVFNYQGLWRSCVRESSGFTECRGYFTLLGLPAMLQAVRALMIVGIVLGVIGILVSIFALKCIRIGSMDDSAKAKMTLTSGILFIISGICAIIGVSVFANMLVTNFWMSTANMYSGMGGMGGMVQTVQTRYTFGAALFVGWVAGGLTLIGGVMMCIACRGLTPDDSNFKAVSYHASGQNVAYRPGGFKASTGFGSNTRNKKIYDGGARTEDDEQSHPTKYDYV


What was measured:
Experiment in all cases: flow cytometry, HEK293 cells
rat CLDN18.2 = biological target: T1, rat CLDN18.2
mouse CLDN18.2 = biological target: T2, mouse CLDN18.2
human CLDN18.2 = human CLDN18.2 (human, UniProt P56856 1-261)
Sequence of human CLDN18.2 (P56856 other isoform, or with tags, fused parts or gaps): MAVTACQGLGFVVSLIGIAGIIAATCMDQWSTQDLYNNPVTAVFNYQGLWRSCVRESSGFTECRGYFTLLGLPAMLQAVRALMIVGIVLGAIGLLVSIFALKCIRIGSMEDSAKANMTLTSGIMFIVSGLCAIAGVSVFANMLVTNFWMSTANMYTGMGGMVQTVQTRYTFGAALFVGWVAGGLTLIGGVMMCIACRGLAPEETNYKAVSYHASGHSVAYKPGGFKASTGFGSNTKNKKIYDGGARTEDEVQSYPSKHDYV

Row | Binder | EC50 (rat CLDN18.2) | EC50 (mouse CLDN18.2) | EC50 (human CLDN18.2)
1 | ZP1I16_D05 IgG1 (antibody, V domains shown) VH: QVQLVQSGAEVKKPGSSVKVSCKASGGTFSSYAISWVRQAPGQGLEWMGGIIPIFGTANYAQKFQGRVTITADESTSTAYMELSSLRSEDTAVYYCARGFIRYGVFDYWGQGTLVTVSS VL: not shown | 11.8 nM | – | 7.89 nM
2 | 008LY1_D04 IgG1 (antibody, V domains shown) VH: QVQLVQSGAEVKKPGSSVKVSCKASGGTFSSYAISWVRQAPGQGLEWMGGIIPIFGTANYAQKFQGRVTITADESTSTAYMELSSLRSEDTAVYYCARGYVQYGYFDYWGQGTLVTVSS VL: not shown | – | – | 9.07 nM
3 | 008M0G_G03 IgG1 (antibody, V domains shown) VH: QVQLVQSGAEVKKPGSSVKVSCKASGGTFSSYAISWVRQAPGQGLEWMGGIIPIFGTANYAQKFQGRVTITADESTSTAYMELSSLRSEDTAVYYCARGYPRYGVFDYWGQGTLVTVSS VL: not shown | 11.1 nM | – | 8.55 nM

Further lines, results first:

Row | EC50 (rat CLDN18.2) | EC50 (mouse CLDN18.2) | EC50 (human CLDN18.2) | Binder
4 | 99.1 nM | 81.3 nM | 92.6 nM | 008LYG_D08 IgG1 (antibody, V domains shown) VH: QVQLVQSGAEVKKPGSSVKVSCKASGGTFSSYAISWVRQAPGQGLEWMGGIIPIFGTANYAQKFQGRVTITADESTSTAYMELSSLRSEDTAVYYCARGYQGMGVFDPWGQGTLVTVSS VL: not shown
5 | 10.5 nM | – | 13.1 nM | ZP1I18_B08 IgG1 (antibody, V domains shown) VH: QVQLVQSGAEVKKPGSSVKVSCKASGGTFSSYAISWVRQAPGQGLEWMGGIIPIFGTANYAQKFQGRVTITADESTSTAYMELSSLRSEDTAVYYCARGFIRYGVFDYWGQGTLVTVSS VL: not shown

Reference: US20240132587A1 (published 2024)
